How the values were obtained:
[1] = system: STINGΔTM-induced STING signaling in HEK293T cells; test: Interferon activity in HEK293T cells pretreated with chemical inhibitors, then cGAMP-STINGΔTM; assay type: cell-based, human; details: increasing inhibitor concentrations before cGAMP-STINGΔTM treatment
Description: For the HEK293T cells, a reporter derivative from this cell line was first generated by transfecting pGL4.45[luc2P/ISRE/Hygro] (Promega company) and stably selected in 200 μg/ml hydromycin. The pGL4.45[luc2P/ISRE/Hygro] vector contains five copies of an interferon-stimulated response element (ISRE) that drives transcription of the luciferase reporter gene luc2P (Photinus pyralis). luc2p is a synthetically-derived luciferase sequence with humanized codon optimization that is designed for high expression and reduced anomalous transcription. The luc2P gene contains hPEST, a protein destabilization sequence, which allows luc2P protein levels to respond more quickly than those of […] to induction of transcription. […] Commercial transfection reagent TranslT-X2TM was used to help transfection (2 μg pDNA mixed with 4 μL TranslT-X2TM in 250 μL Opti-MEM media for each 6-well). […] Transfected cells were also harvested for western blotting.

[2] = system: MC38 cells; test: Therapeutic treatment study, MC38 colon cancer model; assay type: in vivo, C57BL/6 mice; details: intratumoral, 100 μg protein and/or 2.5 μg cGAMP, days 7, 14, 21, 28, 35
Description: A therapeutic treatment study with an MC38 colon cancer model was then performed. […] The tumor size and survival were monitored on a schedule similar to that of the prophylactic study.

[3] = system: intracellular trafficking of the tetrameric complex (EEA1, TBK1, Golgi apparatus, LAMP1); test: Immunocytochemistry / confocal microscopy of intracellular trafficking; assay type: cell-based
Description: Immunocytochemistry: Transfection and immune staining were performed in Millicell® EZ chamber slides (Millipore Sigma, Temecula, Calif., USA). […] Cells were imaged with an Inverted Olympus IX83 microscope equipped with a Hamamatsu ImagEM high sensitivity camera at the Swanson Biotechnology Center (MIT).

[4] = Transmission electron microscopy particle size; details: in PBS
[5] = target: the molecule itself; test: FPLC size exclusion, cGAMP titration; self-association
[6] = target: the molecule itself; test: FPLC size exclusion with cGAMP; self-association
[7] = tetrameric complex, 6 h post-transfection

CO/C1=C\C(C)=C\[C@@H](C)[C@@H](O)[C@@H](C)C/C(C)=C/C=C/[C@H](OC)[C@@H]([C@@H](C)[C@@H](O)[C@H](C)[C@@]2(O)C[C@@H](O)[C@H](C)[C@@H](C(C)C)O2)OC1=O [BafA1, bafilomycin A1]
interferon activity after inhibitor pretreatment [1]: decreasing activity observed with increasing concentrations

O=C(NCCCNc1nc(Nc2cccc(CN3CCOCC3)c2)ncc1C1CC1)C1CCC1 [MRT, MRT67307]
interferon activity after inhibitor pretreatment [1]: decrease with increasing concentrations

CCN(CC)CCCC(C)Nc1ccnc2cc(Cl)ccc12 (stereo not shown) [CQ, chloroquine]
interferon activity after inhibitor pretreatment [1]: increased interferon activity

Nc1nc2c(ncn2[C@@H]2O[C@@H]3COP(=O)(O)O[C@H]4[C@@H](O)[C@H](n5cnc6c(N)ncnc65)O[C@@H]4COP(=O)(O)O[C@@H]2[C@@H]3O)c(=O)[nH]1 [cGAMP, 2′3′ cyclic guanosine monophosphate-adenosine monophosphate]
tumor burden [2]: significantly reduced tumor burden

C[C@H]1CCC/C=C/[C@@H]2C[C@H](O)C[C@H]2[C@H](O)/C=C/C(=O)O1 [BFA, brefeldin A]
interferon activity after inhibitor pretreatment [1]: insignificant effect

B1: mSTINGΔTM (mouse STING amino acids 138-378) (other)
chain: LTPAEVSAVCEEKKLNVAHGLAWSYYIGYLRLILPGLQARIRMFNQLHNNMLSGAGSRRLYILFPLDCGVPDNLSVVDPNIRFRDMLPQQNIDRAGIKNRVYSNSVYEILENGQPAGVCILEYATPLQTLFAMSQDAKAGFSREDRLEQAKLFCRTLEEILEDVPESRNNCRLIVYQEPTDGNSFSLSQEVLRHIRQEEKEEVTMNAPMTSVAPPPSVLSQEPRLLISGMDQPLPLRTDLI
notes: Runs as a dimer (~60 kDa) without cGAMP and as a tetramer (~120 kDa) with cGAMP; Entries with this molecule as both partners are self-association; also called mouse STINGΔTM; recombinant transmembrane-deficient STING
co-localization with LAMP1 ([3]; 24 h post-transfection): co-localization with Lysosomal Associated Membrane Protein 1 (LAMP1) at 24 h post-transfection | co-localization with Early Endosome Antigen 1 (EEA1) [3, 7]: limited co-localization | co-localization with TBK1 [3, 7]: co-localization of TBK1 with STINGΔTM in punctate structures | co-localization with the Golgi apparatus ([3]; with or without the addition of BFA): no significant evidence of STINGΔTM co-localization with the Golgi apparatus | particle diameter (TEM) [4]: ~14 nm | binding result [5]: binds

B2: mSTINGΔTM R237A-Y239A (other)
chain: LTPAEVSAVCEEKKLNVAHGLAWSYYIGYLRLILPGLQARIRMFNQLHNNMLSGAGSRRLYILFPLDCGVPDNLSVVDPNIRFRDMLPQQNIDRAGIKNAVASNSVYEILENGQPAGVCILEYATPLQTLFAMSQDAKAGFSREDRLEQAKLFCRTLEEILEDVPESRNNCRLIVYQEPTDGNSFSLSQEVLRHIRQEEKEEVTMNAPMTSVAPPPSVLSQEPRLLISGMDQPLPLRTDLI
notes: Expressed His-tagged; also called STINGΔTM R238A/Y240A; R237A/Y239A mutant STINGΔTM
binding result [5]: binds

B3: mouse STINGΔTM Q272A/A276Q (other)
chain: LTPAEVSAVCEEKKLNVAHGLAWSYYIGYLRLILPGLQARIRMFNQLHNNMLSGAGSRRLYILFPLDCGVPDNLSVVDPNIRFRDMLPQQNIDRAGIKNRVYSNSVYEILENGQPAGVCILEYATPLQTLFAMSADAKQGFSREDRLEQAKLFCRTLEEILEDVPESRNNCRLIVYQEPTDGNSFSLSQEVLRHIRQEEKEEVTMNAPMTSVAPPPSVLSQEPRLLISGMDQPLPLRTDLI
notes: Expressed His-tagged; also called Q272A/A276Q mutant; functional double mutant at the tetramer interface
binding result [6]: binds

Reference: patent US20230210968A1, “RIBONUCLEOPROTEIN APPROACH TO BOOST THE STING SIGNALING FOR CANCER IMMUNOTHERAPY” (MASSACHUSETTS INSTITUTE OF TECHNOLOGY, priority 2020, published 2023)
